Reference: patent publication US20200262877A1, “ION CHANNEL-BINDING PEPTIDES AND METHODS OF USE THEREOF” (priority 2017, published 2020)

Assays:
[1] = biological target: T1, α4β2 (Homo sapiens, UniProt P17787+P43681); experiment: Ion channel panel (IonWorks Barracuda): α4β2; assay type: cell-based; settings: 100% = no change, <100% = inhibition
T1 construct: host or cells: HEK293 or CHO
Summary of the method: (§1)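 Transfected HEK293 or CHO cells were exposed for at least 5 min to peptides at 200 nM and 20 μM final, tested in duplicate, in HEPES-buffered physiological saline. Activation was taken as peptide-plus-agonist current over control current ×100, and inhibition as 1 minus that ratio ×100. Each channel's control was its own reference compound.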

[2] = biological target: T2, Nav1.7 (Homo sapiens, UniProt Q15858); experiment: cell-based; assay type: cell-based; settings: 100% = no change; for Activity of Nav1.7 with peptide, expressed as a percentage of the reference compound: peptide at 0.2 μM; for Activity of Nav1.7 with peptide (percentage of the reference compound): peptide at 20 μM
T2 construct: host or cells: HEK293 or CHO
T2 sequence (Q15858 whole entry): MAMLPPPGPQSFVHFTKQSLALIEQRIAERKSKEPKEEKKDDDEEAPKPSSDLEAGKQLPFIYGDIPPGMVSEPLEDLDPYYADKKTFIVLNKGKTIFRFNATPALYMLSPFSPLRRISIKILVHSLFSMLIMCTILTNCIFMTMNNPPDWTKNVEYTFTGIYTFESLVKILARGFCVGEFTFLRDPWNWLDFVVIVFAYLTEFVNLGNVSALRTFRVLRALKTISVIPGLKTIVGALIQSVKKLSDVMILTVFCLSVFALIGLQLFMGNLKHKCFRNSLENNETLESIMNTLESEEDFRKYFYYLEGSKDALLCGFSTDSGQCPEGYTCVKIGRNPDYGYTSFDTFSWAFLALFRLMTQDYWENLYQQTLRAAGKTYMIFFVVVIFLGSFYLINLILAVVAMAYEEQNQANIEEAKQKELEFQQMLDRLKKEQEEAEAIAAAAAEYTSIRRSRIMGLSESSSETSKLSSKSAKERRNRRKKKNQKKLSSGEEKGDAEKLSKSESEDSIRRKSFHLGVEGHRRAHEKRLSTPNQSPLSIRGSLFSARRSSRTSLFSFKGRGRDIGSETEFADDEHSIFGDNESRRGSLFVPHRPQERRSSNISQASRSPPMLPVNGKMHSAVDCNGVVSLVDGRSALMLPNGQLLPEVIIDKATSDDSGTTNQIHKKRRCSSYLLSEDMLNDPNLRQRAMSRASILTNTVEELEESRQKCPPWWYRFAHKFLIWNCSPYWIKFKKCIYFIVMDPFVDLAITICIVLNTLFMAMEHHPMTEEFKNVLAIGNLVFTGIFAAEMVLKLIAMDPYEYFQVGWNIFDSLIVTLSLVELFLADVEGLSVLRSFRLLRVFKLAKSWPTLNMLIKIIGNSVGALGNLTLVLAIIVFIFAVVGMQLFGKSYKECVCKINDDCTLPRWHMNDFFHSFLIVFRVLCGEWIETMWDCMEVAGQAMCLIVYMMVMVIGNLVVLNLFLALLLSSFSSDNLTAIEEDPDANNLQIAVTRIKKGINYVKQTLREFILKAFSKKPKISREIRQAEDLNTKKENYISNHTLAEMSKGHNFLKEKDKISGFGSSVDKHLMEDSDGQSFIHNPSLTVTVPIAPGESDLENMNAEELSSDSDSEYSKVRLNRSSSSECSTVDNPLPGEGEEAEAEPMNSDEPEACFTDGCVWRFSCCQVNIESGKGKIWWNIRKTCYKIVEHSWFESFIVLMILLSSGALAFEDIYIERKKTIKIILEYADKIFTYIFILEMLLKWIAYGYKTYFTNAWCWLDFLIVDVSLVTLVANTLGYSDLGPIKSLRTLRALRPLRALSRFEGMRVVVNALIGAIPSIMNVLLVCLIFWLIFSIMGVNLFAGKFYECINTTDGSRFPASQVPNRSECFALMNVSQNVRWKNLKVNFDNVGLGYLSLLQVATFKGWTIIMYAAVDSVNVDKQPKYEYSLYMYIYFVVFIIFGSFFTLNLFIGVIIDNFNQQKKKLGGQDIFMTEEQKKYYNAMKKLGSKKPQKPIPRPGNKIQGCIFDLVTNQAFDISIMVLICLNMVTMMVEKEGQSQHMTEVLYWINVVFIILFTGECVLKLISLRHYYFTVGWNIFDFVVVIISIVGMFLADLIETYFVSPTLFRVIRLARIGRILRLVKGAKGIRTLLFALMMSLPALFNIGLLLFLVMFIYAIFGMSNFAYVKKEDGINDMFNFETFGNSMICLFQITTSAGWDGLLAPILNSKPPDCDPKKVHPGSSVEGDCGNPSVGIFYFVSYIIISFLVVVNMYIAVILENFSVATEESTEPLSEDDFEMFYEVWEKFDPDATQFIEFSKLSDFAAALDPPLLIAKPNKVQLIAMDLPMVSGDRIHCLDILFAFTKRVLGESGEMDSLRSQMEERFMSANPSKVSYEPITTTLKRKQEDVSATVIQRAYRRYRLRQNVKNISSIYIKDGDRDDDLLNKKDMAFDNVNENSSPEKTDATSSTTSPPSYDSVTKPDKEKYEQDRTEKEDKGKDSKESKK

[3] = biological target: T3, TRPA1 (Homo sapiens, UniProt O75762); experiment: Ion channel panel (IonWorks Barracuda): TRPA1; assay type: cell-based; settings: 100% = no change, <100% = inhibition
T3 construct: host or cells: HEK293 or CHO
Summary of the method: as §1

[4] = biological target: Nav1.5 (Homo sapiens, UniProt Q14524); experiment: in vitro; settings: 100% = no change; for Activity of Nav1.5 with peptide, expressed as a percentage of the reference compound: peptide at 0.2 μM; for Activity of Nav1.5 with peptide (percentage of the reference compound): peptide at 20 μM
Chain of Nav1.5 (Q14524 whole entry): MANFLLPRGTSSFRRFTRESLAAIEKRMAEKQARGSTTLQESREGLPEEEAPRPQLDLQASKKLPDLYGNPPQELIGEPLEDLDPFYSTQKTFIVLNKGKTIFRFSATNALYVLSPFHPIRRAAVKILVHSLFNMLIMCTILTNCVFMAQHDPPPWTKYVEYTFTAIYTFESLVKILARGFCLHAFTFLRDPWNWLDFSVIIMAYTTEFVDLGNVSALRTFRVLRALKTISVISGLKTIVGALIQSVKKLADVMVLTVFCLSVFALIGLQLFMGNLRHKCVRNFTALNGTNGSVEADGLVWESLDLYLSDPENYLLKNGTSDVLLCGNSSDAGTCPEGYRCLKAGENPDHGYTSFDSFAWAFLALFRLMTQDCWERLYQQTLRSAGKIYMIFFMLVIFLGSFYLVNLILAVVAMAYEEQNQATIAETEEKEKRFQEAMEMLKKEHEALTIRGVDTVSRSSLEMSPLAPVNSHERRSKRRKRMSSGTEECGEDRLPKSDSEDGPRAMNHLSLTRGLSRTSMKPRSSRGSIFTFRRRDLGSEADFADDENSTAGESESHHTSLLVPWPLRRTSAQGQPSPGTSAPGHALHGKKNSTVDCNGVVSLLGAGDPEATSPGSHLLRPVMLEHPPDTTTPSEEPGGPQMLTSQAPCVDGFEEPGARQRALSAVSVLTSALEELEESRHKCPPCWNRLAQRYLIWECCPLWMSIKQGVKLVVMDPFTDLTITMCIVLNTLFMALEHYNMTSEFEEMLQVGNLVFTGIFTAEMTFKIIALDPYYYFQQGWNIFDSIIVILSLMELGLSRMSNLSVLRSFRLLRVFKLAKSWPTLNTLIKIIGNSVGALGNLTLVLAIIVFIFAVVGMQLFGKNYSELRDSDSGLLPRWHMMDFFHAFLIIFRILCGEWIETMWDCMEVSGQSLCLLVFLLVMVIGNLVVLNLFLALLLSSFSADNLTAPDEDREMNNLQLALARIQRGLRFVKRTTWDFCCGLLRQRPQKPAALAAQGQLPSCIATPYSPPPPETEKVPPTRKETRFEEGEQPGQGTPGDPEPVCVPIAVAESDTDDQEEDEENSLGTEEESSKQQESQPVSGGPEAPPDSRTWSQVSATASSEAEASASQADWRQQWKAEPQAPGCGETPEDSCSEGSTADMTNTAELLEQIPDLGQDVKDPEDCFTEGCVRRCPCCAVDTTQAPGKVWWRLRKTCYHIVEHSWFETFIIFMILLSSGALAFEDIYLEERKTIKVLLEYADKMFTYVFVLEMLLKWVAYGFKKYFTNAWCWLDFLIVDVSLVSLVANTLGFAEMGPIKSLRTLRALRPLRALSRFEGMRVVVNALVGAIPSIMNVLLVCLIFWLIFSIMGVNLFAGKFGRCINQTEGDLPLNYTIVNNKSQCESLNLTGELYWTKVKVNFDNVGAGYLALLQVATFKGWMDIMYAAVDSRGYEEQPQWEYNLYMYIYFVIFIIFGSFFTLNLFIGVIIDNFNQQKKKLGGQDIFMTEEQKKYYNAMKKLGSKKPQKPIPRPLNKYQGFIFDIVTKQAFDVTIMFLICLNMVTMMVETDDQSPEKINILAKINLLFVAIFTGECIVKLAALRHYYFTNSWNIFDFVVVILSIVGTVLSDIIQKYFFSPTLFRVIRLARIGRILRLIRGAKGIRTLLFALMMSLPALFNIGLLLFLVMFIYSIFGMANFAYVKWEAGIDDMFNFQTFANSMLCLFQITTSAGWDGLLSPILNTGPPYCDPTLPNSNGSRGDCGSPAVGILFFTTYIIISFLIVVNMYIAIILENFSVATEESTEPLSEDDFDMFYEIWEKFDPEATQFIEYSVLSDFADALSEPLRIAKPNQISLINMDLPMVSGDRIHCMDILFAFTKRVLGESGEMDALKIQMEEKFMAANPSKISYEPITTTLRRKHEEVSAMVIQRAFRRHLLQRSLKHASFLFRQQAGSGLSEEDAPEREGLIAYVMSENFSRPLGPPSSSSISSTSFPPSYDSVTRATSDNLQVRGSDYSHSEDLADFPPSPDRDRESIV
Summary of the method: as §1

[5] = biological target: hERG (Homo sapiens, UniProt Q12809); experiment: in vitro; settings: 100% = no change, <100% = inhibition
Summary of the method: as §1

[6] = biological target: T4, NR2A (Homo sapiens, UniProt Q12879); experiment: Ion channel panel (IonWorks Barracuda): NR2A; assay type: cell-based; settings: 100% = no change, <100% = inhibition
T4 construct: host or cells: HEK293 or CHO
Summary of the method: as §1

[7] = biological target: T5, Kv1.3 (Homo sapiens, UniProt P22001); experiment: cell-based; assay type: cell-based; settings: 100% = no change, <100% = inhibition
T5 construct: host or cells: HEK293 or CHO
Summary of the method: as §1

[8] = biological target: T6, Kv1.1 (Homo sapiens, UniProt Q09470); experiment: cell-based; assay type: cell-based; settings: 100% = no change, <100% = inhibition
T6 construct: host or cells: HEK293 or CHO
Summary of the method: as §1

[9] = biological target: T7, Kv1.2 (Homo sapiens, UniProt P16389); experiment: cell-based; assay type: cell-based; settings: 100% = no change, <100% = inhibition
T7 construct: host or cells: HEK293 or CHO
T7 sequence (P16389 whole entry): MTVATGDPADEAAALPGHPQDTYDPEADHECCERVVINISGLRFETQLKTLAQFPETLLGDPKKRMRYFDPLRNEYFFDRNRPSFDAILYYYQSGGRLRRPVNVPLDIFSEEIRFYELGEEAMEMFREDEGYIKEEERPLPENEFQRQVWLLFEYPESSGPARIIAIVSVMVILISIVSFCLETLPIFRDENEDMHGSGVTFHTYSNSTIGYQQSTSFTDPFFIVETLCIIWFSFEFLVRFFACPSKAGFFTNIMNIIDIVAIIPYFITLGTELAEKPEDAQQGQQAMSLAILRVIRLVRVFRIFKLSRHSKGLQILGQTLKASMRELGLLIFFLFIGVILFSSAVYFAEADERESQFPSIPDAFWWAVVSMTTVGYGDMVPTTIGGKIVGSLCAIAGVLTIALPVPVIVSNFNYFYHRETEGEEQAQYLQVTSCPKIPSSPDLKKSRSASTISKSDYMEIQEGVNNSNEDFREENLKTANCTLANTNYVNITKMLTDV
Summary of the method: as §1

[10] = biological target: T8, Kir2.1 (Homo sapiens, UniProt P63252); experiment: Ion channel panel (IonWorks Barracuda): Kir2.1; assay type: cell-based; settings: 100% = no change, <100% = inhibition
T8 construct: host or cells: HEK293 or CHO
T8 sequence (P63252 whole entry): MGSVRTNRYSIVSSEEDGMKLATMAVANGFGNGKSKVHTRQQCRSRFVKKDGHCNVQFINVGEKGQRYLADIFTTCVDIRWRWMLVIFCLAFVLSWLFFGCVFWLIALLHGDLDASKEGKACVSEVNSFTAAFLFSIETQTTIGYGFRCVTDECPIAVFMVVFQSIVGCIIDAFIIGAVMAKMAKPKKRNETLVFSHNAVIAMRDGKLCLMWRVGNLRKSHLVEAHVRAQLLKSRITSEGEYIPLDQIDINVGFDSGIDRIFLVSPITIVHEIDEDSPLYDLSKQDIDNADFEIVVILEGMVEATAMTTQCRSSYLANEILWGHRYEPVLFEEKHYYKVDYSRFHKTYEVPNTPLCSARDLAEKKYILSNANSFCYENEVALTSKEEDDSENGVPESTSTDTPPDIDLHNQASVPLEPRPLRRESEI
Summary of the method: as §1

[11] = biological target: T9, NR2B (Homo sapiens, UniProt Q13224); experiment: Ion channel panel (IonWorks Barracuda): NR2B; assay type: cell-based; settings: 100% = no change, <100% = inhibition
T9 construct: host or cells: HEK293 or CHO
Summary of the method: as §1

[12] = test system: GABA; experiment: Ion channel panel (IonWorks Barracuda): GABA; assay type: cell-based; settings: 100% = no change, <100% = inhibition
Summary of the method: as §1

[13] = biological target: T10, TRPV1 (Homo sapiens, UniProt Q8NER1); experiment: Ion channel panel (IonWorks Barracuda): TRPV1; assay type: cell-based; settings: 100% = no change, <100% = inhibition
T10 construct: host or cells: HEK293 or CHO
Summary of the method: as §1

[14] = biological target: T11, α3β4 (Homo sapiens, UniProt P30926+P32297); experiment: Ion channel panel (IonWorks Barracuda): α3β4; assay type: cell-based; settings: 100% = no change, <100% = inhibition
T11 construct: host or cells: HEK293 or CHO
Summary of the method: as §1

[15] = biological target: T12, 5HT3a (Homo sapiens, UniProt P46098); experiment: Ion channel panel (IonWorks Barracuda): 5HT3a; assay type: cell-based
T12 construct: host or cells: HEK293 or CHO
T12 sequence (P46098 whole entry, looked up): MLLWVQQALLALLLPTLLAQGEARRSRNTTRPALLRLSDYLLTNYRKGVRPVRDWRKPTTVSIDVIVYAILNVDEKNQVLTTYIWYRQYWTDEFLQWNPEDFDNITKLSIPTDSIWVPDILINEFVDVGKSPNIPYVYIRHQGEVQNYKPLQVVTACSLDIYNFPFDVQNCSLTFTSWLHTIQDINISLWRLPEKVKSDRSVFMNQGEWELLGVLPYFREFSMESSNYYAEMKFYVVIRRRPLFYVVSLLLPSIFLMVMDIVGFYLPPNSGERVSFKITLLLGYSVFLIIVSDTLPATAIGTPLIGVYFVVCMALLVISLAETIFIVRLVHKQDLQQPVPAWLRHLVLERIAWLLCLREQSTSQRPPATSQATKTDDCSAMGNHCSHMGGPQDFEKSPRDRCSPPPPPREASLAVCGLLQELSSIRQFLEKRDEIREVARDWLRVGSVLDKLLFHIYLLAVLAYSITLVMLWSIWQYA
Summary of the method: as §1

[16] = biological target: T13, Cav2.1 (Homo sapiens, UniProt O00555); experiment: cell-based; settings: 100% = no change, <100% = inhibition
T13 construct: host or cells: HEK293 or CHO
Summary of the method: as §1

[17] = biological target: T14, Cav2.2 (Homo sapiens, UniProt Q00975); experiment: cell-based; settings: 100% = no change, <100% = inhibition
T14 construct: host or cells: HEK293 or CHO
Summary of the method: as §1

[18] = biological target: T15, Kv2.1 (Homo sapiens, UniProt Q14721); experiment: cell-based; settings: 100% = no change, <100% = inhibition
T15 construct: host or cells: HEK293 or CHO
Summary of the method: as §1

[19] = first of two Nav1.7 columns (probably TP1)
[20] = second of two Nav1.7 columns (probably TP2)
[21] = first of two Nav1.5 columns (probably TP1)
[22] = second of two Nav1.5 columns (probably TP2)

“38 (GSGIGDPVTCLKSGAICHPVFCPRRYKQIGTCGLPGTKCCKKP) [compound 38]” was tested, and the “Activity of a4b2 with peptide, expressed as a percentage of the reference compound” value ([1]; peptide at 0.2 μM) was 107%, the “Activity of a4b2 with peptide (percentage of the reference compound)” value ([1]; peptide at 20 μM) was 88% and the “Activity of Nav1.7 with peptide, expressed as a percentage of the reference compound” value [2, 19] was 83%. The “Activity of Nav1.7 with peptide, expressed as a percentage of the reference compound” value [2, 20] was 143%, the “Activity of Nav1.7 with peptide (percentage of the reference compound)” value [2, 19] was 86% and the “Activity of Nav1.7 with peptide (percentage of the reference compound)” value [2, 20] was 86%. For the same substance, the “Activity of TRPA1 with peptide, expressed as a percentage of the reference compound” value ([3]; peptide at 0.2 μM) was 138%, the “Activity of TRPA1 with peptide (percentage of the reference compound)” value ([3]; peptide at 20 μM) was 108% and the “Activity of Nav1.5 with peptide, expressed as a percentage of the reference compound” value [4, 21] was 124%. The “Activity of Nav1.5 with peptide, expressed as a percentage of the reference compound” value [4, 22] was 124%, the “Activity of Nav1.5 with peptide (percentage of the reference compound)” value [4, 21] was 107% and the “Activity of Nav1.5 with peptide (percentage of the reference compound)” value [4, 22] was 112%. For the same substance, the “Activity of hERG with peptide, expressed as a percentage of the reference compound” value ([5]; peptide at 0.2 μM) was 86%, the “Activity of hERG with peptide (percentage of the reference compound)” value ([5]; peptide at 20 μM) was 71% and the “Activity of NR2A with peptide, expressed as a percentage of the reference compound” value ([6]; peptide at 0.2 μM) was 100%. The “Activity of NR2A with peptide (percentage of the reference compound)” value ([6]; peptide at 20 μM) was 90%, the “Activity of Kv1.3 with peptide, expressed as a percentage of the reference compound” value ([7]; peptide at 0.2 μM) was 101% and the “Activity of Kv1.3 with peptide (percentage of the reference compound)” value ([7]; peptide at 20 μM) was 31%. For the same substance, the “Activity of Kv1.1 with peptide, expressed as a percentage of the reference compound” value ([8]; peptide at 0.2 μM) was 97%, the “Activity of Kv1.1 with peptide (percentage of the reference compound)” value ([8]; peptide at 20 μM) was 73% and the “Activity of Kv1.2 with peptide, expressed as a percentage of the reference compound” value ([9]; peptide at 0.2 μM) was 100%. The “Activity of Kv1.2 with peptide (percentage of the reference compound)” value ([9]; peptide at 20 μM) was 84%, the “Activity of Kir2.1 with peptide, expressed as a percentage of the reference compound” value ([10]; peptide at 0.2 μM) was 88% and the “Activity of Kir2.1 with peptide (percentage of the reference compound)” value ([10]; peptide at 20 μM) was 126%. The “Activity of NR2B with peptide, expressed as a percentage of the reference compound” value ([11]; peptide at 0.2 μM) was 83%, the “Activity of NR2B with peptide (percentage of the reference compound)” value ([11]; peptide at 20 μM) was 88% and the “Activity of GABA with peptide, expressed as a percentage of the reference compound” value ([12]; peptide at 0.2 μM) was 121%. The “Activity of GABA with peptide (percentage of the reference compound)” value ([12]; peptide at 20 μM) was 112%, the “Activity of TRPV1 with peptide, expressed as a percentage of the reference compound” value ([13]; peptide at 0.2 μM) was 98% and the “Activity of TRPV1 with peptide (percentage of the reference compound)” value ([13]; peptide at 20 μM) was 76%. The “Activity of a3b4 with peptide, expressed as a percentage of the reference compound” value ([14]; peptide at 0.2 μM) was 99%, the “Activity of a3b4 with peptide (percentage of the reference compound)” value ([14]; peptide at 20 μM) was 92% and the “Activity of 5HT3a with peptide (percentage of the reference compound)” value [15] was 98%. The “Activity of 5HT3a with peptide, expressed as a percentage of the reference compound” value [15] was 97%, the “Activity of Cav2.1 with peptide, expressed as a percentage of the reference compound” value ([16]; peptide at 0.2 μM) was 95% and the “Activity of Cav2.1 with peptide (percentage of the reference compound)” value ([16]; peptide at 20 μM) was 93%. For the same substance, the “Activity of Cav2.2 with peptide, expressed as a percentage of the reference compound” value ([17]; peptide at 0.2 μM) was 117%, the “Activity of Cav2.2 with peptide (percentage of the reference compound)” value ([17]; peptide at 20 μM) was 89% and the “Activity of Kv2.1 with peptide, expressed as a percentage of the reference compound” value ([18]; peptide at 0.2 μM) was 100%. The “Activity of Kv2.1 with peptide (percentage of the reference compound)” value ([18]; peptide at 20 μM) was 125%.
